Source: patent US20110097323A1

How the values were obtained:
CD16A F158 (human) = CD16A F158 (human) (UniProt P08637); experiment: Table 3; relative to wild-type Fc; method not stated
CD32B (FcγRII-B) = CD32B (FcγRII-B) (UniProt P31994); experiment: as above
CD16A V158 (human) = CD16A V158 (human) (UniProt P08637); experiment: as above
HER-2 = HER-2 (UniProt P04626); experiment: SPR (BIAcore 1000), HER-2 amine-coupled to chip, antibody injected at 6.25-200 nM

Sequence of CD32B (FcγRII-B) (P31994 43-217 limits assumed): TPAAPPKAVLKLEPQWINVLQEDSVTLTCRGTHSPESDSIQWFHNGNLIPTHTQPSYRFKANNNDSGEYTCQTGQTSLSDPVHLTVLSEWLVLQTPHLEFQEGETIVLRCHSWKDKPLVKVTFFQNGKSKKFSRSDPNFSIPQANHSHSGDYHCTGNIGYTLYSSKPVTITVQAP
Sequence of CD16A F158 (human) (P08637 17-208 limits assumed): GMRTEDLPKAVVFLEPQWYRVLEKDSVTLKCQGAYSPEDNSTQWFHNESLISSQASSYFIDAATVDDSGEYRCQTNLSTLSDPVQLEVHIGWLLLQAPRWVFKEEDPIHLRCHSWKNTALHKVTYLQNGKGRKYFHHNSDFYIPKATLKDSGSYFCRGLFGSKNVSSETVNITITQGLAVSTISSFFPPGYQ
Sequence of CD16A V158 (human) (P08637 17-208 F176V limits assumed): as the sequence (P08637 17-208 limits assumed) above, with F160V counted along it

binding relative to wild-type Fc (fold) (CD16A F158 (human)) | binding relative to wild-type Fc (fold) (CD32B (FcγRII-B)) | binding relative to wild-type Fc (fold) (CD16A V158 (human)) | koff (HER-2) [s⁻¹] | kon (HER-2) [M⁻¹ s⁻¹] | Substance
3.12 | 1.05 |  |  |  | Fc variant F243I R292P Y300L V305I P396L (from UniProt P01857 99-330)
2.3 | 0.32 | 6.69 |  |  | Fc variant F243L R292P P300L (from UniProt P0DOX5 228-449)
1.37 | 0.37 | 1.14 |  |  | Fc variant V284M R292P K370N (from UniProt P01857 99-330)
 |  |  | 6.3e-06 | 110000 | ch4D5 (antibody)
